Measured values taken from paper PMC10458775, “A Combined Plasmonic and Electrochemical Aptasensor Based on Gold Nanopit Arrays for the Detection of Human Serum Albumin”.

Target: human serum albumin (HSA) (Homo sapiens, UniProt P02768 25-609)
Assay: alternating current voltammetry (electrochemical aptasensor); gold nanopit array with 6-MCH; HSA up to 600 uM; LOD 0.08 nM (not a Kd); 10 mM Tris, 150 mM NaCl, 5 mM KCl, pH 7.4, room temperature; 30 min HSA incubation; aptamer immobilized in 10 mM Tris, 1.5 M NaCl, 1 mM MgCl2, pH 7.4
Settings: label: 5' ferrocene

Sequence of human serum albumin (HSA) (P02768 25-609): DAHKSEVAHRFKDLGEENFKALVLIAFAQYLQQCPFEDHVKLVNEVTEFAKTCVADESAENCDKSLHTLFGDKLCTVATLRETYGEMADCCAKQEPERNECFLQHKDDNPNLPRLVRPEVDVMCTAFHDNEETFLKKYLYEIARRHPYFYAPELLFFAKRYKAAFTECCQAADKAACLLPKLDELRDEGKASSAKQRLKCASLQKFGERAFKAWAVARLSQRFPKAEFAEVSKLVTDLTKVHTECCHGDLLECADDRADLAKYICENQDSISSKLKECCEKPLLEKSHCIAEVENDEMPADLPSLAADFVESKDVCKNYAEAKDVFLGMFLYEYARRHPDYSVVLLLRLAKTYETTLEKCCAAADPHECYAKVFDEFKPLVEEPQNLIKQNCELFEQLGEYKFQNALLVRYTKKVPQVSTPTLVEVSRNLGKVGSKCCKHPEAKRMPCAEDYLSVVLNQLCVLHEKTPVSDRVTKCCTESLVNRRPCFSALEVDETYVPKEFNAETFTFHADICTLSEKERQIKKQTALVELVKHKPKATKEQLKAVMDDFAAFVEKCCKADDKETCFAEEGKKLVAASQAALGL

B1: HSA aptamer (ssDNA)
DNA: GTCTCAGCTACCTTACCGTATGTGGCCCAAAGCGTCTGGATGGCTATGAA
modifications: 3' (CH2)6-SH thiol (disulfide reduced with TCEP), immobilized on gold
- binding result: binds
